Experimental data taken from patent US20140087995A1 (published 2014).
Numbered stars: 1 amine (or outer) side, 2 acyl side, 3 side chain; on linkers, the order of the positions; unused ones are H or OH. Bridge positions count the residues as written; N and C are the ends. Side chains are listed from the residue outwards. Ends that are not written are not given here. * marks the point of attachment. C20 diacid = O=C(O)CCCCCCCCCCCCCCCCCCC(=O)*; C18 diacid = O=C(O)CCCCCCCCCCCCCCCCC(=O)*; C16 diacid = O=C(O)CCCCCCCCCCCCCCC(=O)*; γGlu = O=C(O)[C@H](CCC(=O)[*:2])N[*:1]

T1: human calcitonin receptor (human, UniProt P30988 25-474)
T1 construct: whole, on cells; Used as cell membranes; also called hCTR; hCT
T1 sequence (looked up): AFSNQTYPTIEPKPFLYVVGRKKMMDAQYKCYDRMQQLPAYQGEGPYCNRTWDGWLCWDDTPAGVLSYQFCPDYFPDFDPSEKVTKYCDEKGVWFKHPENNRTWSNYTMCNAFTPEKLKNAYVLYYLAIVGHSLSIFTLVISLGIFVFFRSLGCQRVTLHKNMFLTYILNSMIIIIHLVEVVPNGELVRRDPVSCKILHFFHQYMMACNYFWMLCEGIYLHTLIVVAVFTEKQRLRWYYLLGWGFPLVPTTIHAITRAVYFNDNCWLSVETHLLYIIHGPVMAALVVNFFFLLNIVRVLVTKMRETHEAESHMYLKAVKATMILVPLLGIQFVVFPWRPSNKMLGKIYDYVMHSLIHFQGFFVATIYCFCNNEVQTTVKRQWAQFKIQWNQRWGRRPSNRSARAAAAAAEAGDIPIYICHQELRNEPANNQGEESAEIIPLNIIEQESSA

B1: N^ε1-[(4S)-4-carboxy-4-(15-carboxypentadecanoylamino)butanoyl]-[Arg17,Pro21,Pro27,His34]-h-amylin (peptide)
peptide: K([γGlu-C16 diacid])CNTATCATQRLANFLRHSSPNFGAIPSSTNVGHNTY-NH2
modifications: disulfide 2-7; N-terminus assumed
SMILES: CC[C@H](C)[C@H](NC(=O)[C@H](C)NC(=O)CNC(=O)[C@H](Cc1ccccc1)NC(=O)[C@H](CC(N)=O)NC(=O)[C@@H]1CCCN1C(=O)[C@H](CO)NC(=O)[C@H](CO)NC(=O)[C@H](Cc1c[nH]cn1)NC(=O)[C@H](CCCNC(=N)N)NC(=O)[C@H](CC(C)C)NC(=O)[C@H](Cc1ccccc1)NC(=O)[C@H](CC(N)=O)NC(=O)[C@H](C)NC(=O)[C@H](CC(C)C)NC(=O)[C@H](CCCNC(=N)N)NC(=O)[C@H](CCC(N)=O)NC(=O)[C@@H](NC(=O)[C@H](C)NC(=O)[C@@H]1CSSC[C@H](NC(=O)[C@@H](N)CCCCNC(=O)CC[C@H](NC(=O)CCCCCCCCCCCCCCC(=O)O)C(=O)O)C(=O)N[C@@H](CC(N)=O)C(=O)N[C@@H]([C@@H](C)O)C(=O)N[C@@H](C)C(=O)N[C@@H]([C@@H](C)O)C(=O)N1)[C@@H](C)O)C(=O)N1CCC[C@H]1C(=O)N[C@@H](CO)C(=O)N[C@@H](CO)C(=O)N[C@H](C(=O)N[C@@H](CC(N)=O)C(=O)N[C@H](C(=O)NCC(=O)N[C@@H](Cc1c[nH]cn1)C(=O)N[C@@H](CC(N)=O)C(=O)N[C@H](C(=O)N[C@@H](Cc1ccc(O)cc1)C(N)=O)[C@@H](C)O)C(C)C)[C@@H](C)O
B2: N^ε1-[(4S)-4-carboxy-4-(17-carboxyheptadecanoylamino)butanoyl]-[Arg17,Pro21,Pro27,His34]-h-amylin (peptide)
peptide: K([γGlu-C18 diacid])CNTATCATQRLANFLRHSSPNFGAIPSSTNVGHNTY-NH2
modifications: disulfide 2-7; N-terminus assumed
SMILES: CC[C@H](C)[C@H](NC(=O)[C@H](C)NC(=O)CNC(=O)[C@H](Cc1ccccc1)NC(=O)[C@H](CC(N)=O)NC(=O)[C@@H]1CCCN1C(=O)[C@H](CO)NC(=O)[C@H](CO)NC(=O)[C@H](Cc1c[nH]cn1)NC(=O)[C@H](CCCNC(=N)N)NC(=O)[C@H](CC(C)C)NC(=O)[C@H](Cc1ccccc1)NC(=O)[C@H](CC(N)=O)NC(=O)[C@H](C)NC(=O)[C@H](CC(C)C)NC(=O)[C@H](CCCNC(=N)N)NC(=O)[C@H](CCC(N)=O)NC(=O)[C@@H](NC(=O)[C@H](C)NC(=O)[C@@H]1CSSC[C@H](NC(=O)[C@@H](N)CCCCNC(=O)CC[C@H](NC(=O)CCCCCCCCCCCCCCCCC(=O)O)C(=O)O)C(=O)N[C@@H](CC(N)=O)C(=O)N[C@@H]([C@@H](C)O)C(=O)N[C@@H](C)C(=O)N[C@@H]([C@@H](C)O)C(=O)N1)[C@@H](C)O)C(=O)N1CCC[C@H]1C(=O)N[C@@H](CO)C(=O)N[C@@H](CO)C(=O)N[C@H](C(=O)N[C@@H](CC(N)=O)C(=O)N[C@H](C(=O)NCC(=O)N[C@@H](Cc1c[nH]cn1)C(=O)N[C@@H](CC(N)=O)C(=O)N[C@H](C(=O)N[C@@H](Cc1ccc(O)cc1)C(N)=O)[C@@H](C)O)C(C)C)[C@@H](C)O
B3: N^-1-[(4S)-4-carboxy-4-(19-carboxynonadecanoylamino)butanoyl]-Gly[Arg1,His14,Arg17,Pro21,Pro27,Pro34]-h-amylin (peptide)
peptide: {C20 diacid-γGlu}-GRCNTATCATQRLAHFLRHSSPNFGAIPSSTNVGPNTY-NH2
modifications: disulfide 3-8
SMILES: CC[C@H](C)[C@H](NC(=O)[C@H](C)NC(=O)CNC(=O)[C@H](Cc1ccccc1)NC(=O)[C@H](CC(N)=O)NC(=O)[C@@H]1CCCN1C(=O)[C@H](CO)NC(=O)[C@H](CO)NC(=O)[C@H](Cc1c[nH]cn1)NC(=O)[C@H](CCCNC(=N)N)NC(=O)[C@H](CC(C)C)NC(=O)[C@H](Cc1ccccc1)NC(=O)[C@H](Cc1c[nH]cn1)NC(=O)[C@H](C)NC(=O)[C@H](CC(C)C)NC(=O)[C@H](CCCNC(=N)N)NC(=O)[C@H](CCC(N)=O)NC(=O)[C@@H](NC(=O)[C@H](C)NC(=O)[C@@H]1CSSC[C@H](NC(=O)[C@H](CCCNC(=N)N)NC(=O)CNC(=O)CC[C@H](NC(=O)CCCCCCCCCCCCCCCCCCC(=O)O)C(=O)O)C(=O)N[C@@H](CC(N)=O)C(=O)N[C@@H]([C@@H](C)O)C(=O)N[C@@H](C)C(=O)N[C@@H]([C@@H](C)O)C(=O)N1)[C@@H](C)O)C(=O)N1CCC[C@H]1C(=O)N[C@@H](CO)C(=O)N[C@@H](CO)C(=O)N[C@H](C(=O)N[C@@H](CC(N)=O)C(=O)N[C@H](C(=O)NCC(=O)N1CCC[C@H]1C(=O)N[C@@H](CC(N)=O)C(=O)N[C@H](C(=O)N[C@@H](Cc1ccc(O)cc1)C(N)=O)[C@@H](C)O)C(C)C)[C@@H](C)O
notes: 38 residues
B4: N{-1}-[(4S)-4-carboxy-4-(19-carboxynonadecanoylamino)butanoyl]-Gly[Arg1,His14,Arg17,Pro21,Pro27]-h-amylin (peptide)
peptide: {C20 diacid-γGlu}-GRCNTATCATQRLAHFLRHSSPNFGAIPSSTNVGSNTY-NH2
modifications: disulfide 3-8
SMILES: CC[C@H](C)[C@H](NC(=O)[C@H](C)NC(=O)CNC(=O)[C@H](Cc1ccccc1)NC(=O)[C@H](CC(N)=O)NC(=O)[C@@H]1CCCN1C(=O)[C@H](CO)NC(=O)[C@H](CO)NC(=O)[C@H](Cc1c[nH]cn1)NC(=O)[C@H](CCCNC(=N)N)NC(=O)[C@H](CC(C)C)NC(=O)[C@H](Cc1ccccc1)NC(=O)[C@H](Cc1c[nH]cn1)NC(=O)[C@H](C)NC(=O)[C@H](CC(C)C)NC(=O)[C@H](CCCNC(=N)N)NC(=O)[C@H](CCC(N)=O)NC(=O)[C@@H](NC(=O)[C@H](C)NC(=O)[C@@H]1CSSC[C@H](NC(=O)[C@H](CCCNC(=N)N)NC(=O)CNC(=O)CC[C@H](NC(=O)CCCCCCCCCCCCCCCCCCC(=O)O)C(=O)O)C(=O)N[C@@H](CC(N)=O)C(=O)N[C@@H]([C@@H](C)O)C(=O)N[C@@H](C)C(=O)N[C@@H]([C@@H](C)O)C(=O)N1)[C@@H](C)O)C(=O)N1CCC[C@H]1C(=O)N[C@@H](CO)C(=O)N[C@@H](CO)C(=O)N[C@H](C(=O)N[C@@H](CC(N)=O)C(=O)N[C@H](C(=O)NCC(=O)N[C@@H](CO)C(=O)N[C@@H](CC(N)=O)C(=O)N[C@H](C(=O)N[C@@H](Cc1ccc(O)cc1)C(N)=O)[C@@H](C)O)C(C)C)[C@@H](C)O
notes: 38 residues; also called compound 99

molecular target: T1, human calcitonin receptor; assay: SPA competition on BHK cell membranes, 125I-calcitonin as radioligand (Assay VII)
Procedure, shortened: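 BHK hCTR membranes 35 ng/μL + SPA beads 0.05 mg/well; buffer 50 mM Hepes pH 7.4, 1 mM CaCl2, 5 mM MgCl₂, 0.1% OA, 0.02% Tween20. 120 min, 25° C., shaking. Scintillation count; IC50 by one-site binding competition.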

IC50 [nM]	Binder
10.8	B1
22.7	B2
7.87	B3
35	B4

molecular target: T1, human calcitonin receptor; assay: ratio of hCTR IC50 to hAmylin-R IC50 (reference: human amylin receptor)
Procedure, shortened: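 Competition binding by SPA with cell membranes (35 ng/μL) and SPA beads in 50 mM Hepes pH 7.4 with 1 mM CaCl2, 5 mM MgCl2, 0.1% OA and 0.02% Tween20. Incubated 120 min at 25 °C with shaking, then counted.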

Ratio hCT/hAmylin binding	Binder
18.5	B1
59.4	B2
36.2	B3
100	B4
